Data: paper PMC9482650, “Quantitative fragmentomics allow affinity mapping of interactomes” (Nature Communications, 2022)

T1: GRIP1_4, Q9Y3R0
T1 sequence (Q9Y3R0 467-571, limits assumed, looked up): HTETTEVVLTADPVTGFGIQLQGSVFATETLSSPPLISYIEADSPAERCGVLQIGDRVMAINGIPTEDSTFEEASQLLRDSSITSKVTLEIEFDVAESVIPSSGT

T2: MPP7, Q5T2T1
T2 sequence (Q5T2T1 134-230, limits assumed, looked up): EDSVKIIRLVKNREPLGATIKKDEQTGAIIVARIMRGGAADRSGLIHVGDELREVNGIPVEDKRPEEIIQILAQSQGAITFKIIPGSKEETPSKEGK

T3: LIN7A, O14910
T3 sequence (O14910 103-200, limits assumed, looked up): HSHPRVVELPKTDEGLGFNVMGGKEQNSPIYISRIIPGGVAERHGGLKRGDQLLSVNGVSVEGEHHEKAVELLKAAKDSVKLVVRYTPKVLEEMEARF

T4: DLG3_2, Q92796
T4 sequence (Q92796 221-321, limits assumed, looked up): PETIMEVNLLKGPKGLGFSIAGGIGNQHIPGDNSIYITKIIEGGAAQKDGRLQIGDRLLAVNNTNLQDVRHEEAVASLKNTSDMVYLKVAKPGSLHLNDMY

T5: FRMPD1, Q5SYB0
T5 sequence (Q5SYB0 52-145, limits assumed, looked up): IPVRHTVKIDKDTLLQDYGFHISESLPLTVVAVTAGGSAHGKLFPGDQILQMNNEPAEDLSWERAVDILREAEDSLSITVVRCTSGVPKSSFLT

T6: MPP6, Q9NZW5
T6 sequence (Q9NZW5 125-219, limits assumed, looked up): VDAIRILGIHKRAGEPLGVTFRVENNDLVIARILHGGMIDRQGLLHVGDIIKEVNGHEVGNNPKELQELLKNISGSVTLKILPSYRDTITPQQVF

T7: SNTG1, Q9NSN8
T7 sequence (Q9NSN8 52-150, limits assumed, looked up): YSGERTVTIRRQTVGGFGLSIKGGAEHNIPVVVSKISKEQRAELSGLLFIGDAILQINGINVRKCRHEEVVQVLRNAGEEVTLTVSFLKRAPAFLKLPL

T8: CARD11, Q9BXL7
T8 sequence (Q9BXL7 662-765, limits assumed, looked up): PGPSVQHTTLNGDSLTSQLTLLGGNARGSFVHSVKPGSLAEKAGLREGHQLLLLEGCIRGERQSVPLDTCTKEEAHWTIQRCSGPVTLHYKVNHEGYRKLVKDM

T9: RAPGEF6, Q8TEU7
T9 sequence (Q8TEU7 525-625, limits assumed, looked up): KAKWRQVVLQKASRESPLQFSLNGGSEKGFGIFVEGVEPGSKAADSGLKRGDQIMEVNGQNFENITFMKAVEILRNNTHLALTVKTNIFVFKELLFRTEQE


Tests used:
Experiment in all cases: holdup assay
Parameters in all cases: key: below the threshold = too weak to quantify, mostly under pKd 3.1 to 4
Settings in all cases: plain residues with an end cap or a label only (N-terminal biotin on a linker: ado-ado)
MAST1, Q9Y2H9 = biological target: MAST1, Q9Y2H9
MAST1, Q9Y2H9, sequence (Q9Y2H9 962-1065): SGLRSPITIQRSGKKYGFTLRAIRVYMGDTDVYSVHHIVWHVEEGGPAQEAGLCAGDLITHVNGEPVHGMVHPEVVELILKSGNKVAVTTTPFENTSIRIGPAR

GRIP1_4, Q9Y3R0 = biological target: T1, GRIP1_4, Q9Y3R0
MPP7, Q5T2T1 = biological target: T2, MPP7, Q5T2T1
MAGI1_1, Q96QZ7 = biological target: MAGI1_1, Q96QZ7
MAGI1_1, Q96QZ7, sequence (Q96QZ7 1-106): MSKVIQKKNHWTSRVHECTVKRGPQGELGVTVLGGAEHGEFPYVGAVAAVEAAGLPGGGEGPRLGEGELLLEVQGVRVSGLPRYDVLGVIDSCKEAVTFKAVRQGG

PDZRN4_1, Q6ZMN7 = biological target: PDZRN4_1, Q6ZMN7
PDZRN4_1, Q6ZMN7, sequence (Q6ZMN7 213-318): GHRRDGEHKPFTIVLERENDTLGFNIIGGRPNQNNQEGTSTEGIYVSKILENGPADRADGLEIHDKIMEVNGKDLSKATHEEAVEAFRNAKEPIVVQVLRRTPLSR

IL16_3, Q14005 = biological target: IL16_3, Q14005
IL16_3, Q14005, sequence (Q14005 1107-1207): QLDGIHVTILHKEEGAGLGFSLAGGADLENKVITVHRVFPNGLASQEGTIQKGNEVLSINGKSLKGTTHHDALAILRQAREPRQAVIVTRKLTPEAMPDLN

LIN7A, O14910 = biological target: T3, LIN7A, O14910
DLG3_2, Q92796 = biological target: T4, DLG3_2, Q92796
FRMPD1, Q5SYB0 = biological target: T5, FRMPD1, Q5SYB0
MPP6, Q9NZW5 = biological target: T6, MPP6, Q9NZW5
FRMPD2_3, Q68DX3 = biological target: FRMPD2_3, Q68DX3
FRMPD2_3, Q68DX3, sequence (Q68DX3 1073-1166): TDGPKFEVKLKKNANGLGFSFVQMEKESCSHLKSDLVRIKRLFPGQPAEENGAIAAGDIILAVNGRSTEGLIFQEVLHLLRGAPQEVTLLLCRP

MAGI1_2, Q96QZ7 = biological target: MAGI1_2, Q96QZ7
MAGI1_2, Q96QZ7, sequence (Q96QZ7 456-580): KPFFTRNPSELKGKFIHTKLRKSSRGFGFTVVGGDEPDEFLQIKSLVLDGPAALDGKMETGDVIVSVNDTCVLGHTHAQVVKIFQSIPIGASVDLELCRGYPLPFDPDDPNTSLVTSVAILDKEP

GRIP2_6, Q9C0E4 = biological target: GRIP2_6, Q9C0E4
GRIP2_6, Q9C0E4, sequence (Q9C0E4 648-740): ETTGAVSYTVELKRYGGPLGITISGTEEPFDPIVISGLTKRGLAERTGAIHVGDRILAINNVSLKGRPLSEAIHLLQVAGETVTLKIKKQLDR

GRIP2_5, Q9C0E4 = biological target: GRIP2_5, Q9C0E4
GRIP2_5, Q9C0E4, sequence (Q9C0E4 544-642): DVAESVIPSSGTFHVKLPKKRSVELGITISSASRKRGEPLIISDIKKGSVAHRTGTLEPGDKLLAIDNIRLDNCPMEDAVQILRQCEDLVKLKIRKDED

DLG1_2, Q12959 = biological target: DLG1_2, Q12959
DLG1_2, Q12959, sequence (Q12959 314-412): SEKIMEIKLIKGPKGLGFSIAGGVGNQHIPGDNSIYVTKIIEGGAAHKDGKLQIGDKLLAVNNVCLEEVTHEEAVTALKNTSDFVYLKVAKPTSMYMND

SNTG1, Q9NSN8 = biological target: T7, SNTG1, Q9NSN8
NHERF4_4, Q86UT5 = biological target: NHERF4_4, Q86UT5
NHERF4_4, Q86UT5, sequence (Q86UT5 464-550): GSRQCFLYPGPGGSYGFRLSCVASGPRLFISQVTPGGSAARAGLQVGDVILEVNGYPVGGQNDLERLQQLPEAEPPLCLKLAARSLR

AHNAK1, Q09666 = biological target: AHNAK1, Q09666
AHNAK1, Q09666, sequence (Q09666 4-100): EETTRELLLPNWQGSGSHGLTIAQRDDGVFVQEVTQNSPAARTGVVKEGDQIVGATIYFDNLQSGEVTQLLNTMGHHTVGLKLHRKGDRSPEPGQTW

GRIP2_4, Q9C0E4 = biological target: GRIP2_4, Q9C0E4
GRIP2_4, Q9C0E4, sequence (Q9C0E4 446-548): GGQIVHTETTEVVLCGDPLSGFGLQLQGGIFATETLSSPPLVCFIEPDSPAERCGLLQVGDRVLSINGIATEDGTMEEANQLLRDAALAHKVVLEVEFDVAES

LNX1_3, Q8TBB1 = biological target: LNX1_3, Q8TBB1
LNX1_3, Q8TBB1, sequence (Q8TBB1 500-596): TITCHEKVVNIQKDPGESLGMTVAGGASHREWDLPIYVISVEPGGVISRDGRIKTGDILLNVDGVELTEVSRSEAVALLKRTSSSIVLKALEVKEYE

IL16_4, Q14005 = biological target: IL16_4, Q14005
IL16_4, Q14005, sequence (Q14005 1229-1329): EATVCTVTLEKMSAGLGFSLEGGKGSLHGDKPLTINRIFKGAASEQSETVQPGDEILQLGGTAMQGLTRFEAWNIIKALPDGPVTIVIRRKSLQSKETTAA

CARD11, Q9BXL7 = biological target: T8, CARD11, Q9BXL7
Inadl_9, Q8NI35 = biological target: Inadl_9, Q8NI35
Inadl_9, Q8NI35, sequence (Q8NI35 1530-1615): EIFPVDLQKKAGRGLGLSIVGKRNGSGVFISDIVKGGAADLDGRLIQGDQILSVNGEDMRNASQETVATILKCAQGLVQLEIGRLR

LDB3, O75112 = biological target: LDB3, O75112
LDB3, O75112, sequence (O75112 1-94): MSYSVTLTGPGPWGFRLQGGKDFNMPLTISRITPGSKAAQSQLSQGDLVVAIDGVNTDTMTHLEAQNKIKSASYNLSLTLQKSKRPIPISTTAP

LIMK2, P53671 = biological target: LIMK2, P53671
LIMK2, P53671, sequence (P53671 143-248): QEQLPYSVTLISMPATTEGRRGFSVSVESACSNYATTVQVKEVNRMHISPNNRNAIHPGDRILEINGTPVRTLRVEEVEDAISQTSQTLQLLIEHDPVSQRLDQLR

LNX1_1, Q8TBB1 = biological target: LNX1_1, Q8TBB1
LNX1_1, Q8TBB1, sequence (Q8TBB1 261-371): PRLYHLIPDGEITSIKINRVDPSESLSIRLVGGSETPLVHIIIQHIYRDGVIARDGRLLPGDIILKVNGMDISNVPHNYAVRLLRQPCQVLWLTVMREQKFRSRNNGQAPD

HTRA1, Q92743 = biological target: HTRA1, Q92743
HTRA1, Q92743, sequence (Q92743 360-477): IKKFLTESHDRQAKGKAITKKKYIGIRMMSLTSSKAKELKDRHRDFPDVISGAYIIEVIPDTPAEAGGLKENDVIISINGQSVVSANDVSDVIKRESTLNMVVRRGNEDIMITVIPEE

RAPGEF6, Q8TEU7 = biological target: T9, RAPGEF6, Q8TEU7
HTRA2, O43464 = biological target: HTRA2, O43464
HTRA2, O43464, sequence (O43464 355-458): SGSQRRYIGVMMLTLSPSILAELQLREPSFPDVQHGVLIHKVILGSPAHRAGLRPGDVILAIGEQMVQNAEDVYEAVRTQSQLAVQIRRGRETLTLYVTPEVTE

Row | Binder | pKd (MAST1, Q9Y2H9) | pKd (GRIP1_4, Q9Y3R0) | pKd (MPP7, Q5T2T1) | pKd (MAGI1_1, Q96QZ7) | pKd (PDZRN4_1, Q6ZMN7) | pKd (IL16_3, Q14005) | pKd (LIN7A, O14910) | pKd (DLG3_2, Q92796) | pKd (FRMPD1, Q5SYB0) | pKd (MPP6, Q9NZW5) | pKd (FRMPD2_3, Q68DX3) | pKd (MAGI1_2, Q96QZ7) | pKd (GRIP2_6, Q9C0E4) | pKd (GRIP2_5, Q9C0E4) | pKd (DLG1_2, Q12959) | pKd (SNTG1, Q9NSN8) | pKd (NHERF4_4, Q86UT5) | pKd (AHNAK1, Q09666) | pKd (GRIP2_4, Q9C0E4) | pKd (LNX1_3, Q8TBB1) | also measured
1 | YNNCLEILRV [DCAF7, P61962] | 4.08 | below the threshold | below the threshold | below the threshold | below the threshold | below the threshold | below the threshold | below the threshold | below the threshold | below the threshold | below the threshold | below the threshold | below the threshold | below the threshold | below the threshold | below the threshold | below the threshold | below the threshold | below the threshold | 3.94 | pKd (IL16_4, Q14005): below the threshold; pKd (CARD11, Q9BXL7): below the threshold; pKd (Inadl_9, Q8NI35): 3.57; pKd (LDB3, O75112): below the threshold; pKd (LIMK2, P53671): below the threshold; pKd (LNX1_1, Q8TBB1): below the threshold; pKd (HTRA1, Q92743): 5.22; pKd (RAPGEF6, Q8TEU7): below the threshold; pKd (HTRA2, O43464): 4.66
2 | LGRSTPQSEV [DGKH, Q86XP1] | 4.19 | below the threshold | below the threshold | below the threshold | below the threshold | below the threshold | below the threshold | below the threshold | below the threshold | 3.71 | below the threshold | below the threshold | below the threshold | below the threshold | 4.01 | 3.96 | below the threshold | below the threshold | below the threshold | below the threshold | pKd (IL16_4, Q14005): below the threshold; pKd (CARD11, Q9BXL7): below the threshold; pKd (Inadl_9, Q8NI35): below the threshold; pKd (LDB3, O75112): below the threshold; pKd (LIMK2, P53671): below the threshold; pKd (LNX1_1, Q8TBB1): 4.01; pKd (HTRA1, Q92743): below the threshold; pKd (RAPGEF6, Q8TEU7): below the threshold; pKd (HTRA2, O43464): below the threshold
3 | CLREWCDAFL [BANF1, O75531] | 4.96 | below the threshold | below the threshold | below the threshold | below the threshold | below the threshold | below the threshold | 4.15 | below the threshold | below the threshold | below the threshold | below the threshold | below the threshold | below the threshold | below the threshold | below the threshold | 3.6 | below the threshold | below the threshold | below the threshold | pKd (IL16_4, Q14005): below the threshold; pKd (CARD11, Q9BXL7): below the threshold; pKd (Inadl_9, Q8NI35): below the threshold; pKd (LDB3, O75112): below the threshold; pKd (LIMK2, P53671): 3.61; pKd (LNX1_1, Q8TBB1): below the threshold; pKd (HTRA1, Q92743): 5.01; pKd (RAPGEF6, Q8TEU7): 3.47; pKd (HTRA2, O43464): 3.91

The next lines start with results.

Row | pKd (MAST1, Q9Y2H9) | pKd (GRIP1_4, Q9Y3R0) | pKd (MPP7, Q5T2T1) | pKd (MAGI1_1, Q96QZ7) | pKd (PDZRN4_1, Q6ZMN7) | pKd (IL16_3, Q14005) | pKd (LIN7A, O14910) | pKd (DLG3_2, Q92796) | pKd (FRMPD1, Q5SYB0) | pKd (MPP6, Q9NZW5) | pKd (FRMPD2_3, Q68DX3) | pKd (MAGI1_2, Q96QZ7) | pKd (GRIP2_6, Q9C0E4) | pKd (GRIP2_5, Q9C0E4) | pKd (DLG1_2, Q12959) | pKd (SNTG1, Q9NSN8) | pKd (NHERF4_4, Q86UT5) | pKd (AHNAK1, Q09666) | pKd (GRIP2_4, Q9C0E4) | pKd (LNX1_3, Q8TBB1) | Binder | also measured
4 | 4.54 | below the threshold | below the threshold | below the threshold | 4.17 | below the threshold | below the threshold | 5.27 | below the threshold | below the threshold | below the threshold | 4.05 | below the threshold | below the threshold | 5.51 | 5.11 | below the threshold | below the threshold | below the threshold | below the threshold | RRISSLESEV [GRIN2C, Q14957] | pKd (IL16_4, Q14005): below the threshold; pKd (CARD11, Q9BXL7): below the threshold; pKd (Inadl_9, Q8NI35): below the threshold; pKd (LDB3, O75112): below the threshold; pKd (LIMK2, P53671): below the threshold; pKd (LNX1_1, Q8TBB1): 4.34; pKd (HTRA1, Q92743): 3.82; pKd (RAPGEF6, Q8TEU7): below the threshold; pKd (HTRA2, O43464): below the threshold
5 | below the threshold | below the threshold | below the threshold | below the threshold | below the threshold | below the threshold | below the threshold | 4.79 | below the threshold | below the threshold | below the threshold | 4.21 | below the threshold | below the threshold | 5.25 | below the threshold | below the threshold | below the threshold | below the threshold | below the threshold | PPYRHRNTVV [ERBB4, Q15303] | pKd (IL16_4, Q14005): below the threshold; pKd (CARD11, Q9BXL7): below the threshold; pKd (Inadl_9, Q8NI35): 3.53; pKd (LDB3, O75112): below the threshold; pKd (LIMK2, P53671): below the threshold; pKd (LNX1_1, Q8TBB1): 4.23; pKd (HTRA1, Q92743): 4.13; pKd (RAPGEF6, Q8TEU7): below the threshold; pKd (HTRA2, O43464): below the threshold
